In data set [1] the target is thrombin protease (Amersham Biosciences). In words: cell-based or functional assay.
Data set [2] addresses GFP^2-RG-RLuc2 (GTR2) (UniProt P27652).
For data set [3], the target named is GFP^2-RG-RLuc fusion protein (UniProt P27652).
Sequence of GFP^2-RG-RLuc fusion protein (P27652 other isoform, or with tags, fused parts or gaps): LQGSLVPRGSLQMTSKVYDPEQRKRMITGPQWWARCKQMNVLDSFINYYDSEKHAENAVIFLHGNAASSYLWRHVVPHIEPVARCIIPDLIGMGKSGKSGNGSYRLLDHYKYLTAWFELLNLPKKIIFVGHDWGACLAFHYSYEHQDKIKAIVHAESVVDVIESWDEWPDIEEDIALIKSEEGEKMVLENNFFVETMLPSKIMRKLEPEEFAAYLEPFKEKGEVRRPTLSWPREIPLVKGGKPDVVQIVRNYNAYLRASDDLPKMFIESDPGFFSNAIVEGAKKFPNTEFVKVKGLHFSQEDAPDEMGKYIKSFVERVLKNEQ

Sequence of GFP^2-RG-RLuc2 (GTR2) (P27652 other isoform, or with tags, fused parts or gaps): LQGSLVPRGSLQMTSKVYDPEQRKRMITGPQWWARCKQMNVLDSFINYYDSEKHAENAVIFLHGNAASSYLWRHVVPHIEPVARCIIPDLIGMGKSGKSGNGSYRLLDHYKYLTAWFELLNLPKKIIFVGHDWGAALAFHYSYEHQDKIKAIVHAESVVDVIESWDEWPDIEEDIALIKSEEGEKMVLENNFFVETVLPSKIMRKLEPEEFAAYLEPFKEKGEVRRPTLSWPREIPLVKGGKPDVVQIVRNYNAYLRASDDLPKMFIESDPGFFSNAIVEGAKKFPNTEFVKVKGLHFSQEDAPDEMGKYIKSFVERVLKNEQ
Sequence of Recombinant hirudin from yeast (Sigma) (P01050 whole entry): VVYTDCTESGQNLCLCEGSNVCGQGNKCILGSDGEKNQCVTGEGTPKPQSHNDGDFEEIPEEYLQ

Regarding “Recombinant hirudin from yeast (Sigma) (from UniProt P01050 1-65)”, the BRET^H ratio of the sensor with thrombin after pre-addition of hirudin in data set [1] worked out at 1.08.
Regarding “thrombin protease (Amersham Biosciences)”, the “change of BRET^2 ratio of GTR2 after 2 units of thrombin in diluted milk and orange juice” value in data set [2] is “Thrombin activity was detected in 1/10 dilutions of milk and orange juice”. In data set [3], the “BRET^H ratio following thrombin cleavage” value was “from 1.11±0.06 to 0.75±0.04”; the “SDS-PAGE of the sensor after thrombin treatment” value is “the fusion protein was cleaved into two components with molecular weights of 32.4 KDa and 36.4 KDa”; the “bioluminescence spectrum of the sensor after thrombin” value is reported as “Upon thrombin cleavage the green component of the spectrum was reduced”; the change of BRET^2 ratio (GFP/RLuc) at 270 pM thrombin was found to be 10 fold. Moreover, in data set [3], the “decrease in BRET^2 signal, on-chip mixing of 1 µM sensor with 540 nM thrombin and substrate” value is “Approximately 75% decrease in BRET^2 signal”; the “decrease of the BRET^H ratio following thrombin cleavage” value is listed as “by approximately 32%”; the “detection limit for thrombin, microchip BRET^H” value is on record as 27 pM; the “detection limit for thrombin, microplate BRET^H” value turned out to be 310 pM. Further, in data set [3], the hybrid BRET ratio following thrombin cleavage came out at 0.79; the “lowest thrombin concentration observable in real time (120 seconds), side-by-side network” value was 540 nM; the “lowest thrombin concentration tested and detected, pancake stack network” value is given as “Thrombin was detected down to 14 nM, the lowest concentration tested”; the “thrombin concentration detected easily, pancake stack network (478 second residence time)” value is on record as 27 nM thrombin could be detected easily. In addition, in data set [3], the “upper end of the linear change of BRET^H ratio with thrombin concentration, microfluidic” value is reported as “up to 0.24 nM for microfluidic measurements” and the “upper end of the linear change of BRET^H ratio with thrombin concentration, microplate” value was 2.7 nM for microplate measurements.

The record behind these values is patent publication US20150094219A1.
